Assay results published in the Human Domainome abundance scans (Beltran et al. 2025).

B1: Kinesin-like protein KIF16B, residues 1213 to 1273; numbered along this chain, Q96L93 (parent)
chain: ETWTVFRRYSRFREMHKTLKLKYAELAALEFPPKKLFGNKDERVIAERRSHLEKYLRDFFS

Variants of: B1
Test: abundance fitness (aPCA) (normalised: wild type 0, dead -1); higher = more abundant; growth selection in yeast, the domain comes from the species named
Conditions: Homo sapiens

Abundance fitness of substitutions, site by site:
D41: Y 0.057; W 0.354
A46: Q -0.03; W -0.176; L -0.324; S 0.147; K 0.186; Y -0.262; P 0.256; V -0.057; M -0.073; R 0.131; C 0.093; T 0.242; E 0.037; D -0.01; G 0.211; F -0.27
V44: W 0.112; D 0.24; K 0.18; Y -0.215; E -0.145; T 0.263; Q 0.047; S 0.351; R 0.117; N -0.06; P 0.299; G 0.188; C 0.316; A 0.029
E53: K 0.391; T 0.317; P 0.228; I 0.197; C 0.31; G 0.426; W 0.378; Y 0.329; R 0.412; H 0.059; L 0.352; N 0.292; M 0.309; F 0.243; A 0.191; V 0.277; S 0.414
L56: M -0.191; R -0.584; Q 0.163; K -0.567; N -0.518; S -0.453; C 0.032; D -0.343; I -0.011; V -0.019; P -0.308; E -1.2; T -0.001; Y -0.263
Y55: K 0.481; A -0.007; G 0.021; N -0.249; V -0.082; M 0.185; C 0.265; S 0.12; L 0.182; E -0.942; H -0.116; W 0.281; R 0.396; P -0.19; D -0.613
D58: L -0.075; S -0.182; V -0.048; P 0.09; C -0.024; N -0.149; G 0.03; H 0.09; K 0.241; I 0.012; F 0.049; A 0.087; W 0.204; M 0.056; R 0.161; Q -0.153
E47: Q -0.175; Y -0.223; W 0.014; M -0.053; H 0.129; F 0.117; C 0.038; V -0.173; I -0.2; T 0.132; N 0.099; S 0.091; A -0.307; P 0.118; L -0.274; R 0.099; D 0.183; G 0.243; K -0.011
K54: A -0.251; G -0.171; P -0.945; I -0.314; E -0.298; S -0.174; L -0.256; N -0.127; H -0.532; M -0.327; V -0.289; C -0.785; R 0.076; D -0.489; T -0.013; F -0.664; W -0.476
R49: A -0.166; Q -0.201; L 0.279; C 0.247; G -0.01; V -0.41; Y -0.68; M -0.477; W -0.064; I 0.367; P -0.273; T -0.286; S -0.145; K 0.504
I45: T 0.158; A 0.177; F 0.158; W 0.35; D 0.057; E 0.107; P 0.271; H 0.11; M 0.062; K 0.281; G 0.264; R 0.133; L 0.051; N 0.031; V 0.009; Q 0.174; Y -0.274; C 0.133
S50: K -0.133; Y -0.66; D -0.11; T -0.056; V -0.36; N 0.05; Q -0.545; P 0.045; F -0.117; E -0.696; G -0.1; W 0.117; A -0.213; H -0.039; C 0.256; R -0.301; L -0.042
L52: K -0.184; V 0.058; G -0.149; T -0.363; Q -0.866; A -0.201; S -0.647; I -0.092; R -0.473; M -0.131; W 0.217; P 0.175; F 0.048; H -0.123; N -0.642
S61: K -0.025; N -0.23; Y -0.81; M -0.073; P -0.337; A -0.263; C -0.412; L -0.038; R 0.143; Q 0.11; G -0.09; T -0.296; V -0.029
F59: C -0.429; A -0.607; T -0.489; I -0.031; S -0.994; M -0.277; R -0.461; E -0.627; G -0.573; Q -0.51; K -0.204; V -0.121; L -0.157; W -0.005
F60: R -0.565; L -0.087; S -0.585; E -1; C -0.263; G -0.647; V -0.165; P -0.759; Q -1.01; M -0.256; I -0.143; W 0.153; A -0.729
R57: F -0.33; I -0.388; E -0.636; K -0.094; W -0.447; Q -0.776; V -0.412; A -0.444; L -0.368; T -0.309; S -0.427; Y -0.437; P -0.087; N -0.395; C -0.239; H -0.6; M -0.468; D -0.712
R43: C -0.097; V -0.099; M -0.32; L -0.282; W -0.155; Y -0.489; P -0.004; H 0.129; F -0.249; N 0.137; A 0.033; T 0.018; E -0.22; K 0.017; I -0.227; G 0.209; D -0.31; Q 0.003
E42: W 0.268; T 0.078; G 0.266; Y -0.242; V -0.012; R 0.122; A -0.011; C 0.044; N 0.306; H -0.476; L 0.164; K 0.227; I 0.053; F 0.224; D -0.031; Q -0.056; S 0.186
R48: K -0.061; P 0.113; M 0.159; I 0.123; G 0.108; E -0.374; Y -0.266; W 0.275; S -0.018; V -0.05; C -0.148; T -0.363; F 0.087; Q -0.291; D -0.186
H51: P -0.164; Q 0.002; A 0.043; I -0.294; G 0.248; D -0.778; K 0.376; E -0.379; Y -0.235; L -0.098; S -0.047; R 0.194; N -0.436; C -0.359; M -0.368; W -0.069
